Data from FireProtDB (doi:10.1093/oxfordjournals.jbchem.a021544).

Details: Homo sapiens; pH 2.7; Thermal; DSC; glycine 0.05 M; reversible: yes; whole UniProt chain shown

B1: Lysozyme C wild type, P61626 (protein)
chain: MKALIVLGLVLLSVTVQGKVFERCELARTLKRLGMDGYRGISLANWMCLAKWESGYNTRATNYNAGDRSTDYGIFQINSRYWCNDGKTPGAVNACHLSCSALLQDNIADAVACAKRVVRDPQGIRAWVAWRNRCQNRDVRQYVQGCGV
In the case of B1, the Tm is reported as 64.9 °C, the “heat capacity change of unfolding” value is reported as 1.58 kcal/mol/K and the “unfolding enthalpy (calorimetric)” value is reported as 114 kcal/mol. For the same protein, the “unfolding enthalpy (van 't Hoff)” value was 120 kcal/mol.
